Measurements published in PMC7042329, “AMPK-dependent activation of the Cyclin Y/CDK16 complex controls autophagy” (Nature Communications, 2020).

Target: T1, Cyclin Y-Flag (human, UniProt Q8ND76-1 1-341)
T1 construct: Cyclin Y, human, isoform 1 (CCNYiso1 cDNA clone in pcDNA3-FLAG); In cells partly phosphorylated at S326 (more after AICAR/A769662) and at S336; also called Cyclin Y-Flag-wt; wild-type Cyclin Y; source: HeLa or U2OS, transfected, in lysate
Assay: co-IP; HeLa cells transfected with Cyclin Y-Flag, with or without GFP-tagged CDK; with or without 0.5 mM AICAR/50 µM A769662 for 1 h; lysate in Frackelton buffer, anti-FLAG M2 beads 2 h at 4 °C, three washes, immunoblot
Conditions: partners not purified

T1 sequence (Q8ND76 whole entry, canonical isoform): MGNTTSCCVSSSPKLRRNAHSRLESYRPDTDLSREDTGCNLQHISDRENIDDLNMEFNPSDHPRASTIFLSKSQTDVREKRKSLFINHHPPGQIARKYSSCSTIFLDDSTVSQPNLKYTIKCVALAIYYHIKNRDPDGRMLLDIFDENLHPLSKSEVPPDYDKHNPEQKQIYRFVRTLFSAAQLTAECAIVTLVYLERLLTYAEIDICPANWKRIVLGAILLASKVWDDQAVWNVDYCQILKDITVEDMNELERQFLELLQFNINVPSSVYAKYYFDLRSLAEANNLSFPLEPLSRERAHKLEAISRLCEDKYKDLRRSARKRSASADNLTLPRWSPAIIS

fold change of co-immunoprecipitated CDK16 with AICAR/A769662 against untreated: 2 fold
B1: GFP-CDK16 (enzyme)
chain: not shown
notes: Cyclin-dependent kinase 16 (CDK16), human, isoform 1; also called GFP-CDK16-wt; PCTAIRE1; source: HeLa, transfected, in lysate
